Results on two molecules are retold here after PMC12420816 (Nature Communications, 2025).

What is called stoichiometry N is a count of units in the complex or per binding partner.

For series [1], the target named is SARS-CoV-2 nsp7-11 polyprotein, tag-free with native (authentic) termini (SARS-CoV-2). The experiment in a line: native MS.
Series [2] concerns the molecule itself. Description: native MS.

“SARS-CoV-2 nsp7-11 polyprotein, tag-free with native (authentic) termini (domain or fragment)” showed a stoichiometry N in series [1] of 2.

B1: MERS-CoV mature nsp7, released from nsp7-11 by SARS-CoV-2 M^pro (natural protein)
chain: SKLTDLKCTSVVLLSVLQQLHLEANSRAWAFCVKCHNDILAATDPSEAFEKFVSLFATLMTFSGNVDLDALASDIFDTPSVLQ
On to B1, for which the “stoichiometry N” value in series [2] came to 2.
